According to patent US20240400689A1 (ANTENGENE BIOLOGICS, published 2024):
Where a chain is given by its changes, count along the chain named. One block for each binder: values may come before it.

Columns and labels:
human CD276 protein = molecular target: T1, human CD276 protein (human, UniProt Q5ZPR3 29-534); assay: FACS on CHO-S-hCD276 cells
T1 construct: whole, on cells; for SKOV3 and the other cancer lines the protein is the cells' own; also called B7-H3; B7H3
T1 sequence (looked up): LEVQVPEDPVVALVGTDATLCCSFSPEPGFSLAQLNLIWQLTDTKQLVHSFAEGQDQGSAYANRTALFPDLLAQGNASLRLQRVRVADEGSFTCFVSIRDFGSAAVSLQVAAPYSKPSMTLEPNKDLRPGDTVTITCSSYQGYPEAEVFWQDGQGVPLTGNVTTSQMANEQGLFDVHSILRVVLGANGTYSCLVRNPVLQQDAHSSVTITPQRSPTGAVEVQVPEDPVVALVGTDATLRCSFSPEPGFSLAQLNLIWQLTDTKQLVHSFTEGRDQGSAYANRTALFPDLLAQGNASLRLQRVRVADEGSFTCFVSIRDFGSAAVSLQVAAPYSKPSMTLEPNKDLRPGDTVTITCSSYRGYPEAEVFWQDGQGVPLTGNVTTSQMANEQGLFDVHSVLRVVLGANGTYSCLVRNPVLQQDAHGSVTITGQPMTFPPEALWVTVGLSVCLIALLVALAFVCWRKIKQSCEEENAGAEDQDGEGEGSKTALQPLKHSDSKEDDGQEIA
Experimental: (§1) Screening & Expansion—The subcloning plates were screened by protein or cell-based Elisa, and the subclones with good binding ability were expanded to 24-wells for confirmation tests. The specificity and cross-reactivity of these subclones were confirmed with FACS analysis. Briefly, parental CHO-S cells, CHO-S-hCD276, CHO-S cell line stably over-expressing Macaca fascicularis CD276, CHO-K1 S, cell line stably over-expressing mouse CD276 were incubated with antibodies produced by each subclone respectively. Fluorescent dye-conjugated secondary antibody was used to detect the binding of the primary antibody with the cells. Median fluorescence intensity was measured by FACS analysis.

mouse CD276 protein = molecular target: T2, mouse CD276 protein (mouse, UniProt Q8VE98 29-316); assay: FACS on CHO-S-mCD276 cells
T2 construct: whole, on cells; also called mCD276; CHO-S-mCD276
T2 sequence (looked up): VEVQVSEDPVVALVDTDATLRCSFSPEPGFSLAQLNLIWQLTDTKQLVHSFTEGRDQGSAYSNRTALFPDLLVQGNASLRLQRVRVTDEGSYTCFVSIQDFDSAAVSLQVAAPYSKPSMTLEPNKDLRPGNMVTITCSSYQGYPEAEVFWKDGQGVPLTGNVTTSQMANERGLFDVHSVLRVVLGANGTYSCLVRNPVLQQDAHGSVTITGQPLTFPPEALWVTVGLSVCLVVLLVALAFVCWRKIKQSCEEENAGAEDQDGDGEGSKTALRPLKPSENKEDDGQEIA
Experimental: as §1

[1] = molecular target: T3, Macaca fascicularis CD276 (Macaca fascicularis); assay: FACS on CHO-S-cynoCD276 cells
T3 construct: whole, on cells; also called cynomolgus monkey CD276; cynoCD276
Experimental: as §1

FACS MFI (human CD276 protein): 141000 | FACS MFI (mouse CD276 protein): 1830 | FACS MFI [1]: 19500
B1: 16-C6-F7-F5 (antibody, V domains shown)
VH: QIQLVQSGPEVKKPGETVKISCKASGYTFTKYGINWVKQAPGEGLKWMGWIWTYTGKPTYGDDFKGRFAFSLETSASTAYLQISDLKIEDMATYFCARDDGYYYTMNYWGQGTSVTVSS
VL: DIVMTQTPLSLPVSLGDQASISCRSSQSLLHTNGDTYLHWYLQKAGQPPKLLIYKVSNRFSGVPDRFSGSGSGTDFTLKISRVEAEDLGVYFCSQSTHIPWTFGGGTKLEIK
notes: mouse monoclonal antibody (hybridoma)

FACS MFI (human CD276 protein): 74300 | FACS MFI (mouse CD276 protein): 1670 | FACS MFI [1]: 56500
B2: 22-E11-C3-F2 (antibody, V domains shown)
VH: QIQLVQSGPELKRPGETVKISCKASGYSFTNYGMNWVKQAPGKGLKWMGWINPYTGEPTYADDFKGRFAMSLETSASAAYLQINNLKNEDMATYFCGRDDGYHYTMNYWGQGTSVTVSS
VL: B1 VL with I2V, T7P, L30I, T32S, A45P, P48S, N58I, H98Y, I99V
notes: as for B1

FACS MFI (human CD276 protein): 56300 | FACS MFI (mouse CD276 protein): 2080 | FACS MFI [1]: 40800
B3: 28-G2-E6-B10 (antibody, V domains shown)
VH: QVQLQQPGAELVKPGASVKLSCKASGYTFTSYWMHWVKQRPGQGLEWIGMIHPNSDTTDYNEKFKTKATLTVDKSSSTAYMQLSSLTSEDSAVFYCARGGLGPHYFVYWGQGTTLTVSS
VL: QAVVTQESALTTSPGGTVILTCRSSTGAVTTSNYASWVQEKPDHLFTGLIGGTSNRAPGVPVRFSGSLIGDKAALTITGAQTEDDAMYFCALWYSPHYVFGGGTKVTVL
notes: as for B1

FACS MFI (human CD276 protein): 37900 | FACS MFI (mouse CD276 protein): 92600 | FACS MFI [1]: 101000
B4: 6-D8-E7-A11 (antibody, V domains shown)
VH: QVHLQQPGAELVKPGASVKLSCKASGYTFTNYWMHWVKRRPGQGLEWIGMIHPNSGTTSFNEKFKSKATLTVDKSSSTAYMQLSSLTSEDSAVYYCAGYYGSSFSWFTYWGQGTLVTVSA
VL: B3 VL with Y34F, S36N, P96T
notes: as for B1

FACS MFI (human CD276 protein): 38800 | FACS MFI (mouse CD276 protein): 2770 | FACS MFI [1]: 2110
B5: 3-C2-C3-E7 (antibody, V domains shown)
VH: EVQLQQSGPELVKPGASVKISCKTSGYTFTENTMHWVKQSHGKRLEWIGGINPNTGGTTYNQKFKGKATLTVDKSSSTAYMELRSLTSEDSAVYYCARRGTNWEHWYFDVWGAGTTVTVSS
VL: QIVLTQSPAIMSASPGEKVTMTCSASSSVSYMHWYQQKSGTSPKRWIYDTSKLASGVPARFSGSGSGTSYSLTISSMEAEDAATYYCQQWSSNPLTFGAGTKLELK
notes: as for B1

FACS MFI (human CD276 protein): 16000 | FACS MFI (mouse CD276 protein): 1350 | FACS MFI [1]: 80500
B6: 27-F8-E10-E11 (antibody, V domains shown)
VH: EVQLQQSGPELVKPGASVKISCKTSGYTFTEYAMHWVKQSHGKILEWIGGINPNIGGTTYNQKFKDKATLTVDKSSSTASMELRSLTSEDSAVYYCARFLVPSTEGFTYWGQGTLVTVSA
VL: B5 VL with K52R, L53V
notes: as for B1

FACS MFI (human CD276 protein): 127000 | FACS MFI (mouse CD276 protein): 1300 | FACS MFI [1]: 36700
B7: 23-F10-G4-F11 (antibody, V domains shown)
VH: EVQLQESGPDLVRPGALVKLSCKSSGFNIKDYPIHWVRQRPEQGLEWIGWFDPDNGNVIYDPRFQGKASITADTSSNTAYLQLNSLTSEDTAVYYCSSPYGAMDYWGQGTSVTVSS
VL: B5 VL with A9E, M32I, S75R, W90G, L95R, A99G, L105I
notes: as for B1

FACS MFI (human CD276 protein): 58900 | FACS MFI (mouse CD276 protein): 2040 | FACS MFI [1]: 56000
B8: 2-A7-B10-A3 (antibody, V domains shown)
VH: QVQLQQSGAELVRPGVSVKISCKGSGYTFTDYAMHWVKQSHAKSLEWIGVINTNYVNTSYNQKFKGKATMTVDKSSSTAFMELARLTSEDSAIYYCARGGKYGNYVFFFAYWGQGTLVTVSA
VL: DIQMTQTTSSLSASLGDRVTISCRASQDISNYLNWYQQKPDGTVKLLIYYTSRLHSGVPSRFSGSGSGTDYSLTISNLEQEDIATYFCQQGNTLPYTFGGGTKLEIK
notes: as for B1

FACS MFI (human CD276 protein): 45300 | FACS MFI (mouse CD276 protein): 1530 | FACS MFI [1]: 62200
B9: 5-D1-G6-D9 (antibody, V domains shown)
VH: EVQLQESGAELVKPGASVKLSCKTSGLTFSTNYISWLKQKPGQSLEWIAWIYGGNGGTSYNQRFTGKAQLTVDTSSSTAYMQFSSLTTEDSAIYYCTSHDYYGGPMDYWGQGTSVTVSS
VL: B8 VL with Y50F, G64A, G91T, Y96W
notes: as for B1

FACS MFI (human CD276 protein): 52300 | FACS MFI (mouse CD276 protein): 1140 | FACS MFI [1]: 35700
B10: 3-F2-E7-F9 (antibody, V domains shown)
VH: QVQLQQSGPELVRPGVSVKISCKGSGYTFTDYTMHWVKESHAKSLEWIGVISTYYGNTNYNQKFKGKATLTVDKSSSTAYMELAGLTSEDSAIYYCARASYGSGYGPYYWYFDVWGAGTTVTVSS
VL: DIQMTQSPASLFASVGETVTITCRASEKIYSYLAWYFQKQGKSPQFLVYNANALAEGVPSRFSGSGSGTQFSLKINSLQPEDFGTYYCQHHYGTPVTFGAGSKLELK
notes: as for B1

FACS MFI (human CD276 protein): 77100 | FACS MFI (mouse CD276 protein): 1260 | FACS MFI [1]: 9020
B11: 20-A2-D10-G8 (antibody, V domains shown)
VH: B10 VH with K43Q, K63N
VL: B10 VL with N76K, T94S
notes: as for B1

FACS MFI (human CD276 protein): 85100 | FACS MFI (mouse CD276 protein): 1180 | FACS MFI [1]: 15200
B12: 24-C10-F9-G7 (antibody, V domains shown)
VH: B10 VH with Q1E, Q6E, Y32H, K43Q, K63N
VL: B10 VL
notes: as for B1

FACS MFI (human CD276 protein): 127000 | FACS MFI (mouse CD276 protein): 20600 | FACS MFI [1]: 83500
B13: 18-F9-D8-G7 (antibody, V domains shown)
VH: EVQLQQSGPELVRPGVSVKISCKGSGYTFTDYAMHWVKQSHAQSLEWIGIINTYSGDTNYNQKFKGKATMTVDKSSSTAYMGLARLTSEDSAIFYCARGGGNYPYWYFDVWGAGTTVTVSS
VL: ENVLTQSPAIMSASPGEKVTMTCRASSSVSSSYLHWYQQKSGDSPKLWIYSTSNLASGVPARFSGSGSGTSYSLTISSVEAEDAATYYCQQFSVYPLTFGAGTKLEIK
notes: as for B1

FACS MFI (human CD276 protein): 5940 | FACS MFI (mouse CD276 protein): 1370 | FACS MFI [1]: 5390
B14: 25-D3-G4-C6 (antibody, V domains shown)
VH: EIQLQQTGPELVKPGASVKISCKASGYSFTDYIILWVKQSHGMSLEWIGNINPYYNSTYYNLKFKGKATLTVDKSSSTAYMQLDSLTSEDSAVYYCARDSFDWYFGVWGAGTTVTVSS
VL: DVVMTQTPLSLPVSLGDQASISCRSSQSLVHSNGNTYLHWYLQKPGQSPKLLIYKVSNRFSGVPDRFSGSGSGTDFTLKISRVETEDLGIYFCSQSTHVPPLTFGAGTKLELK
notes: as for B1

FACS MFI (human CD276 protein): 94700 | FACS MFI (mouse CD276 protein): 1590 | FACS MFI [1]: 87900
B15: 27-E7-D8-C7 (antibody, V domains shown)
VH: EVQLQESGPELVRPGVSVKISCKGSGYTFTDYAMHWVKQSHAKSLEWIGVINTYSDNTNYNRKFKGKATMTVDKSSSTAYMELARLTSEDSAIYYCARGLLLRSQLGVYFDYWGQGTTLTVSS
VL: QIVLSQSPAILSASPGEKVTMTCRASSSVSYMHWYQQKPGSSPKPWIYATSNLASGVPARFSGSGSGTSYSLTISRVEAEDAATYYCQQWSSNPWTFGGGTKLEIK
notes: as for B1

FACS MFI (human CD276 protein): 7610 | FACS MFI (mouse CD276 protein): 1950 | FACS MFI [1]: 5700
B16: 9-E8-F9-C10 (antibody, V domains shown)
VH: EVQLQQSGAELVRPGTSVKISCKASGYAFSDYWLSWVKQRPGHGLEWIGDICPGSGNIYYNERFKDKVILTADRSSSTAYLQFSSLTSEDSVVYFCTRLITRVIDYWGQGTSVTVST
VL: ENVLTQSPAIMSASPGEKVTMTCSASSSVNYMHWYQQKSSTSPKLWIYDTSKLSSGVPGRFSGSGSGNSYSLTISSMEAEDVATYYCFQGSGYPLTFGAGTKLELK
notes: as for B1

FACS MFI (human CD276 protein): 49600 | FACS MFI (mouse CD276 protein): 27600 | FACS MFI [1]: 5400
B17: 9-G2-H6-E4 (antibody, V domains shown)
VH: EVQLQQSGPDLVKPGASVKISCKASGYSFTGYFMNWVKQRHGKSLEWIGYINPNNGDTIYNQKFKGKATLTVDKSSSTAHMELLSLTSEDSAVYYCGRGGLPFGALDYWGQGTSVTVSS
VL: DIVMSQSPSSLAVSVGEKVNMSCKSSQSLLYSRNQKNYLAWNQQKPGQSPKLLIYWASARESGVPDRFTGSGSGTDFTLTISSVKAEDLAAYYCQQYHSYPYTFGGGTKLELK
notes: as for B1
